Reference: patent publication US20220259593A1, “CONTROL OF MAMMALIAN GENE DOSAGE USING CRISPR” (The Regents of the University of California, priority 2019, published 2022)

The molecules below were run on K562 CRISPRi cells (assay: Constant region variant library pooled growth screen, K562). Conditions: sgRNA constant region variants; activity relative to the original, un-modified constant region cr995.
Type: cell-based, human
How it was run: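 Pooled library transduced into K562 CRISPRi cells in duplicate, puromycin-selected, grown at >2000× coverage and sampled after 4 to 8 days. Phenotypes per targeting sequence:constant region pair were normalized to the unmodified-scaffold pairing to give relative activity.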

Row | Molecule | Mean relative activity
1 | cr360 (nucleic acid, listed as DNA, chemistry not fully specified) guide: GTTTAAGAGCTAAGCTGGAAACAGCATAGCAAGTTTAAATAAGGCTAGTCCGTTATCAACTTGAAAAAGTGGCATCGAGTCGATGCT | 1.066
2 | cr176 (nucleic acid, listed as DNA, chemistry not fully specified) guide: GTTTAAGAGCTAAGCTGGAAACAGCATAGCAAGTTTAAATAAGGCTAGTCCGTTATCAGCTTGAAAAAGCGGCACCGAGTCGGTGCT | 1.067
3 | cr327 (nucleic acid, listed as DNA, chemistry not fully specified) guide: GTTTAAGAGCTAAGCTGGAAACAGCATAGCAAGTTTAAATAAGGCTAGTCCGTTATCAACTTGCAAAAGTGGCACCGAGTCGGTGCT | 1.066

Same assay, conditions: sgRNA constant region variants; activity relative to the un-modified constant region cr995

Row | Molecule | Mean relative activity
4 | cr906 (nucleic acid, listed as DNA, chemistry not fully specified) guide: GTTTAAGAGCTAAGCTGGAAACAGCATAGCAAGTTTAAATAAGGCTAGTCCGTTATCAACTTGAGAAAGTGGCAGCGAGTCGCTGCT | 0.9817
5 | cr624 (nucleic acid, listed as DNA, chemistry not fully specified) guide: GTTTAAGAGCTAAGCTGGAAACAGCATAGCAAGTTTAAATAAGGCTAGTCCGTTGTCAACTTGAAAAAGTGGCACCGAGTCGGTGCT | 0.9799
6 | cr825 (nucleic acid, listed as DNA, chemistry not fully specified) guide: GTTTAAGAGCTAAGCTGGAAACAGCATAGCAAGTTTAAATAAGGCTAGTCCGTTATCAACTTGAAAAAGTGGCTGCGAGTCGCAGCT | 0.9691
7 | cr644 (nucleic acid, listed as DNA, chemistry not fully specified) guide: GTTTAAGAGCTAAGCTGGAAACAGCATTGCAAGTTTAAATAAGGCTAGTCCGTTATCAACTTGAAAAAGTGGCACCGAGTCGGTGCT | 0.9694
8 | cr159 (nucleic acid, listed as DNA, chemistry not fully specified) guide: GTTTAAGAGCTAAGCTGGAAACAGCATAGCTAGTTTAAATAAGGCTAGTCCGTTATCAACTTGAAAAAGTGGCACCGAGTCGGTGCT | 0.9739
9 | cr754 (nucleic acid, listed as DNA, chemistry not fully specified) guide: GTTTAAGAGCTAAGCTGGAAACAGCATAGCAAGTTTAAATAAGGCTAGTCCGTTATCAACTTTAAAAAGTGGCACCGAGTCGGTGCT | 0.9804
10 | cr224 (nucleic acid, listed as DNA, chemistry not fully specified) guide: GTTTAAGAGCTAAGCTGGAAACAGCATAGCAAGTTTAAATAAGGCTAGTCCGTTATCAACCTGAAAAGGTGGTATCGAGTCGATACT | 0.9777
11 | cr556 (nucleic acid, listed as DNA, chemistry not fully specified) guide: GTTTAAGAGCTAAGCTGGAAACAGCATAGCAAGTTTAAATAAGGCTAGTCCGTTATCAACTCGAAAGAGTGATACCGAGTCGGTATT | 0.9785
12 | cr969 (nucleic acid, listed as DNA, chemistry not fully specified) guide: GTTTAAGAGCTAAGCTGGAAACAGCATAGCAAGTTTAAATAAGGCTAGTCCGTTATCATCTTGAGAAAGAGGCACCGAGTCGGTGCT | 0.9815
13 | cr102 (nucleic acid, listed as DNA, chemistry not fully specified) guide: GTTTAAGAGCTAAGCTGGAAACAGCATAGCAAGTTTAAATAAGGCTAGTCCGTTATCAATTTGAAAAAATGGAACCGAGTCGGTTCT | 0.9651
14 | cr299 (nucleic acid, listed as DNA, chemistry not fully specified) guide: GTTTAAGAGCTAAGCTGGAAACAGCATAGCAAGTTTAAATAAGGCTAGTCCGTTATCAACTTGGGAAAGTGGCACCGAGTCGGTGCT | 0.9718
15 | cr783 (nucleic acid, listed as DNA, chemistry not fully specified) guide: GTTTAAGAGCTAAGCTGGAAACAGCATAGCAAGTTTAAATAAGGCTAGTCCGTTATCATCTTGAAAAAGAGGAACCGAGTCGGTTCT | 0.9779
16 | cr994 (nucleic acid, listed as DNA, chemistry not fully specified) guide: GTTTAAGAGCTAAGCTGGAAACAGCATAGCAAGTTTAAATAAGGCTAGTCCGTTATCAACTTGAAAAAGTGGCACCGATTCGGTGCT | 0.9671
17 | cr161 (nucleic acid, listed as DNA, chemistry not fully specified) guide: GTTTAAGAGCTAAGCTGGAAACAGCATAGCAAGTTTAAATAAGGCTAGTCCGTTATCAACTTGAACAAGTGGCACCGACTCGGTGCT | 0.9671
18 | cr226 (nucleic acid, listed as DNA, chemistry not fully specified) guide: GTTTAAGAGCTAAGCTGGAAACAGCATAGCAAGTTTAAATAAGGCTAGTCCGTTATCAACTTGAAAAAGTGGCCACGAGTCGTGGCT | 0.9795
19 | cr021 (nucleic acid, listed as DNA, chemistry not fully specified) guide: GTTTAAGCGCTAAGCTGGAAACAGCATAGCAAGTTTAAATAAGGCTAGTCCGTTATCAACTTGAAAAAGTGGCACCGAGTCGGTGCT | 0.9786
20 | cr306 (nucleic acid, listed as DNA, chemistry not fully specified) guide: GTTTAAGAGCTAAGCTGGAAACAGCATAGCAAGTTTAAATAAGGCTTGTCCGTTATCAACTTGAAAAAGTGGCACCGTGTCGGTGCT | 0.9647
21 | cr800 (nucleic acid, listed as DNA, chemistry not fully specified) guide: GTTTAAGAGCTAAGCTGGAAACAGCATAGCAAGTTTAAATAAGGTTAATCCGTTATCATCTTGAAAAAGAGACACCGAGTCGGTGTT | 0.9728
22 | cr359 (nucleic acid, listed as DNA, chemistry not fully specified) guide: GTTTAAGAGCTAAGCTGGAAACAGCATCGCAAGTTTAAATAAGGCTAGTCCGTTATCAACTTGAAAAAGTGGCACCGAGTCGGTGCT | 0.9746
23 | cr926 (nucleic acid, listed as DNA, chemistry not fully specified) guide: GTTTAAGAGCTAAGCTGGAAACAGAATAGCAAGTTTAAATAAGGCTAGTCCGTTATCAACTTGAAAAAGTGGCACCGAGTCGGTGCT | 0.9811
24 | cr747 (nucleic acid, listed as DNA, chemistry not fully specified) guide: GTTTAAGAGCTAAGCTGGAAACAGCATAGCAAGTTTAAATAAGGCTAGTCCGTTATCACCTTGAGAAAGGGGCACCGAGTCGGTGCT | 0.9812
25 | cr811 (nucleic acid, listed as DNA, chemistry not fully specified) guide: GTTTAAGAGCTAAGCTGGAAACAGTATAGCAAGTTTAAATAAGGCTAGTCCGTTATCAACTTGAAAAAGTGGCACCGAGTCGGTGCT | 0.9803
26 | cr307 (nucleic acid, listed as DNA, chemistry not fully specified) guide: GTTTAAGAGCTAAGCTGGAAACAGCATAGCAAGTTTAAATAAGGCTAGTCCGTTATCAACTTGAAAAAGTGGCACCAAGTTGGTGCT | 0.9746
27 | cr782 (nucleic acid, listed as DNA, chemistry not fully specified) guide: GTTTAAGAGCTAAGCTGGAAACAGCATAGCAAGTTTAAATAAGGCTAGTCCGTTATCAACTTTAGAAAGTGGCACCGAGTCGGTGCT | 0.9816
28 | cr287 (nucleic acid, listed as DNA, chemistry not fully specified) guide: GTTTAAGAGCTAAGCTGGAAACAGCATAGCAAGTTTAAATAAGGCTAGTCCGTTATCAACTTGATAAAGTGGCACCGACTCGGTGCT | 0.9686
29 | cr238 (nucleic acid, listed as DNA, chemistry not fully specified) guide: GTTTAAGAGCTAAGCTGGAAACAGCATAGCAAGTTTAAATAAGGCTAGTCCGTTATCAACTTGAAAAAGTGGCTTCGAGTCGAAGCT | 0.9809
30 | cr147 (nucleic acid, listed as DNA, chemistry not fully specified) guide: GTTTAAGAGCTAAGCTGGAAACAGCATAGCAAGTTTAAATAAGGCTAGTCCGTTATCAACTTATAAAAGTGGCACCGACTCGGTGCT | 0.9753
